Biological target: HIV-1 BaL envelope glycoprotein (Env) trimer on AT-2 inactivated virions (HIV-1 (BaL))
Assay: cryo-EM structure

stoichiometry N (17b Abs per Env trimer): 3
Substance: anti-coreceptor binding site (CoRBS) antibody 17b (full IgG)

— PMC12669584
